# “Also recorded” adds a separate entry of the source.
# B1: LT-α: Lymphotoxin alpha polypeptide (SEQ ID No. 1/2); recombinant mouse LT-α used in mouse tests, recombinant human LT-α in human cell tests (protein, UniProt P01374 35-205, looked up)
# Lymphotoxin-alpha: LPGVGLTPSAAQTARQHPKMHLAHSTLKPAAHLIGDPSKQNSLLWRANTDRAFLQDGFSLSNNSLLVPTSGIYFVYSQVVFSGKAYSPKATSSPLYLAHEVQLFSSQYPFHVPLLSSQKMVYPGLQEPWLHSMYHGAAFQLTQGDQLSTHTDGIPHLVLSPSTVFFGAFAL
# modifications: mouse LT-α also used
# Assays:
# [1] = test system: FLT3-ITD-transduced BM; experiment: Colony forming cell assay (CFU-GEMM) of FLT3-ITD-transduced bone marrow; assay type: cell-based, mouse; details: WT FLT3-ITD transduced cultures; rm LT-α 100 ng/ml, rm TNF 100 ng/ml, Etanercept 50 ng/ml; counted after 10 days; vs control
# Protocol: For colony forming cell assays, all duplicate cultures were performed in 35 mm petri dishes in murine methylcellulose medium (Methocult, Stem Cell Technologies). BM cells of unchallenged or 5-FUchallenged mice were plated in M3434. […] For analysis of colony forming units (CFU) cell viability, colonies were grown for 10 days in the presence of propidium iodide (PI) (0.8 μg/ml; Sigma) and representative CFU-GEMM were imaged using a Keyence BZ-9000 (Biorevo) fluorescence microscope.
# [2] = test system: AML cell lines; experiment: Relative number of cells in AML cell lines after treatment (flow cytometry); assay type: cell-based, human; details: panel of nine AML cell lines; 7 days; vs untreated cells
# Protocol: All centrifugation steps were performed at 400×g.
# [3] = test system: WT FLT3-ITD mice (FLT3-ITD-driven myeloproliferative disorder)
# Protocol: For treatment, two- and eight-weeks post transplantation animals were randomly divided into groups of eight. Mice were i.v. injected twice per week with either isotype control (5 mg/kg; RTK2071; Biolegend), Etanercept (Enbrel®, 50 ng/ml; Pfizer), rm LT-α (250 μg/kg; Cusabio), a-TNF (5 mg/kg; MP6-XT22; Biolegend), or rm LT-α plus a-TNF.
# Mice with disease were sacrificed. Peripheral blood white blood cell counts (WBC) were measured by scil Vet abc (scil animal care company). Single-cell suspensions of indicated tissue samples were prepared and red blood cells of peripheral blood were lysed before analysis. Cells were pre-incubated with Fc-block and subsequently stained with fluorescently labeled antibodies. Dead cells were excluded by PI (Sigma) or Zombie Aqua™ Fixable Viability Kit (Biolegend) staining according to the manufacturer's instructions.
# [4] = test system: AML primary human samples; experiment: Primary AML bone marrow samples treated in vitro for 7 days (Lin- cells, LSC, CD99- HSPC); assay type: cell-based; details: for cell death of AML cells (blasts, LSCs), comparison between treatments: 7-day treatment of AML primary human samples
# Text: Primary and secondary AML samples were obtained from patients enrolled in the clinical trial AMLCG-2008 (http://clinicaltrial.gov identifier NCT01382147), the AML register protocol of the AML Register and Biomaterial Database of the German Leukemia Study Alliance, the AML register protocol of the German AML Cooperative Group Version 2.0 from Jan. 6, 2011, the AML register protocol of the German AML study group, or treated at the III. Medical Department at the Technical University of Munich after approval of the local ethics committee (approval no. 62/16 S from Feb. 10, 2016 to 2790/10 from Apr. 30, 2010). Informed consent was obtained from patients at study entry.
# To examine how targeting TNF/ LT-α signaling can be most effectively used to treat AML, the inventors treated AML primary human samples in vitro. LT-α and a-TNF (Adalimumab) were evaluated, alone or in combination. Moreover, LT-α was tested in combination with the standard AML chemotherapeutic Cytarabine (CYT), the clinical SMAC mimetic Birinapant, and the clinical pan-caspase inhibitor Emricasan. Drug concentrations were determined after titration in healthy bone marrow samples and AML cell lines (data not shown). After 7-day-treatment, cell viability was evaluated, using CD99 to discriminate between non-leukaemogenic HSPCs (CD99^−) and LSCs (FIG. 4c).
# [5] = test system: healthy BM; experiment: Hematopoietic cell subsets in healthy bone marrow treated with LT-α; details: 100 ng/ml LT-α
# Protocol: (§1) Human primary samples: Bone marrow mononuclear cells (BMMC) were isolated from heparinized bone marrow samples or bone chips by centrifugation over a Ficoll-Hypaque layer (Biochrom) of 1.077 g/ml density. Cells were harvested and used directly for immunephenotyping or cultured in IMDM (Gibco) supplemented with 20% fetal calf serum (FCS; PAN-Biotech), penicillin/streptomycin 0.05 mM, L-glutamine 2 mM, and 2-mercaptoethanol 0.05 mM (Gibco) on EL08-1D2 stromal cells.
# (§2) For flow cytometry analysis after treatment, BM cells or AML cell lines were cultured as described above for 7 days in the presence of the following cytokines and inhibitors if indicated and not stated otherwise: Etanercept (Enbrel®; 50 ng/ml; Pfizer), recombinant human (rh) LT-α (100 ng/ml; R&D), rh TNF (100 ng/ml; R&D), Emricasan (2.5 nM; SelleckChem), Birinapant (10 nM; SelleckChem), Cytarabine (100 nM), a-LTα-Ig (10 μg/ml; 359-238-8; Biolegend), Adalimumab (Humira®; 500 ng/ml; Abbvie), and respective isotype controls Mouse IgG1, κ (MOPC-21; Biolegend), and Ultra-LEAF™ purified Human IgG1 (QA16A12; Biolegend).
# (§3) Non-leukemia control samples were collected from individuals who underwent bone marrow aspiration for diagnostic purposes and in whom subsequently a hematological disease was ruled out. Healthy controls were isolated from the femoral heads of patients who underwent surgical hip replacement.
# (§4) Antibodies used to separate human hematopoietic cell subsets, for immunephenotyping and intracellular protein expression analysis: Fluorescently labelled antibodies against Lineage Cocktail (Cat #348801; 348703), CD45RA (HI100), CD34 (581), CD38 (HB-7), CD99 (3B2/TA8), CD123 (5B11) were obtained from Biolegend. Flow analysis was performed on a BD FACS Canto II (BD Biosciences) and data were analyzed using FlowJo software (Tree Star).
# [6] = test system: K562; experiment: Relative number of K562 CML cells after treatment; details: alone or with imatinib 1 or 10 μM; vs untreated cells
# Protocol: As a model for CML, LT-α was tested for potential effects on the cell line K562, either separately against the standard therapy imatinib (in concentrations of 1 or 10 μM) alone, or in combination (FIG. 5).
# [7] = test system: healthy BM
# Protocol: as §1, §2, §3, §4
# [8] = WT FLT3-ITD mice, treated twice per week
# [9] = compared to controls, data not shown
molecule,measurement,setting,value
Etanercept,number of GEMM colonies,[1],increase
same,number of AML cells,[2],not observed
same,remission / disease outcome,[3]; [8],rapidly succumbed to disease
same,Median survival,"[3]; WT mice transplanted with FLT3-ITD-transduced WT BM, treated i.v. twice per week",65 days
same,WBC counts,[3]; [9],considerably elevated
same,hepato-splenomegaly,[3]; [9],increased
same,latency,[3]; [9],reduced
same,leukemic burden,[3]; [9],elevated
same,number of primitive leukemic cells,[3]; [9],drastically increased
"CC[C@H](NC(=O)[C@H](C)NC)C(=O)N1C[C@@H](O)C[C@H]1Cc1c(-c2[nH]c3cc(F)ccc3c2C[C@@H]2C[C@H](O)CN2C(=O)[C@H](CC)NC(=O)[C@H](C)NC)[nH]c2cc(F)ccc12 [Birinapant, reference compound]","cell death of AML cells (blasts, LSCs), comparison between treatments",[4],"better at promoting cell death, both of blasts and LSCs, than Cytarabine"
"C[C@H](NC(=O)C(=O)Nc1ccccc1C(C)(C)C)C(=O)N[C@@H](CC(=O)O)C(=O)COc1c(F)c(F)cc(F)c1F [Emricasan, reference compound]","cell death of AML cells (blasts, LSCs), comparison between treatments",[4],resistant to LT-α- and Birinapant-induced cell death
adalimumab,number of AML cells,[2],drastic reduction
B1,number of GEMM colonies,[1],significantly reduced
same,number of AML cells,[2],significantly decreased
same,toxic effect on healthy bone marrow,[5]; bone marrow samples from healthy control patients,not elicit any detectable toxic effect
same,healthy haematopoiesis (HSCs and myeloid progenitor subsets),[5]; healthy BM,sustained
same,"cell death of AML cells (blasts, LSCs), comparison between treatments",[4],more effectively than the standard AML chemotherapeutic Cytarabine; also recorded: more efficient manner than a-TNF
same,non-leukaemogenic HSPCs (CD99-),"[4]; 7-day treatment, a-TNF = Adalimumab",promoted expansion
same,Lin- cells (bulk of AML blasts and healthy HSPCs),"[4]; 7-day treatment, rh LT-α 100 ng/ml",killed
same,LSCs in AML BM samples,"[4]; 7-day treatment, rh LT-α 100 ng/ml, a-TNF = Adalimumab 500 ng/ml",killed
same,effect on K562 cells (relative number of cells),[6],significant effects; also recorded: kills blast cells
same,toxicity to healthy controls / healthy cells,[7],lacks any pronounced cytotoxicity
same,tolerability in vivo,"[3]; WT FLT3-ITD mice, i.v. twice per week",well tolerated
same,remission / disease outcome,[3]; [8],induced durable remissions
same,LSCs in FLT3-ITD-transplanted mice,[3]; treated twice per week,eradicates LSCs

# — patent US20220193195A1, “LYMPHOTOXIN ALPHA FOR USE IN THERAPY OF MYELOID LEUKEMIA” (Klinikum Rechts der Isar der Technischen Universität München, priority 2019, published 2022)
